The labels stand for the following.
B1: TPR t1 (parent)
chain: GACCAAUCUGCCCUCAGAGCUCGAGAACAUCUUCGGAUGCAGAGGAGGCAGGCUUCGGUGGCGCGAUAGCGCCAACGUCCUCAACCUCCAAUGCAUCCCACCACAUGAUGAUGCCUGAAGAGCCUUGGUUUUUUG

The values below come from the RNAGym collection of RNA variant scans (doi:10.1073/pnas.2313332121).

The variants in this data set derive from B1. As to the kind of experiment: polymerase ribozyme fitness, log enrichment relative to wild type (log ratio); higher = more active; in vitro selection for triplet polymerase activity. Put shortly: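 A single round of triplicate in vitro selection, including frozen incubation at −7 °C, was applied to PCR-built, transcribed mutant libraries of each subunit of a heterodimeric triplet polymerase ribozyme. Illumina sequencing of input and output libraries retained genotypes with ≥10 input reads and ≥1 read per output. Fitness is the base-2 logarithm of genotype enrichment divided by wild-type enrichment, from inverse-variance-weighted replicate averages.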
Take GACCAAUCUGCCCUCAGAGCUCGAGAACAUCUUCGGAUGCAGAGGAGGCAGGCUUCGGUGGCGCGAUAGCACCAACGUCCUCAACCUCCAGUGCAUCCCACCACAUGAUGAUGCCUGAAGUGCCUUGGUUUUUUG [G71A A91G A121U]: the “polymerase ribozyme fitness (log ratio)” value was -0.169. The value for GACCAAUCUGCCCUCAGAGCUCGAGAACAUCUUCGGUUGCAGAGGAGGCAGGCUUCGGUGGCGCGAUAGCGCCAACGUCCUCAACCUCCAAUGCAUCCCACCACAUGAUCAUGCCUGAAGUGCCUUGGUUUUUUG [A37U G110C A121U] was -3.77; that for GACCAAUCUGCCCUCAGAGCUCGAGAACAUCUUCGGAUGCAGAGGAGGCAGGCUUCGGUGCCGCGAUAGCGCCAACGUCCUCAACCUCCAAUGCAUCCCACCACAUGAUGAUGCCUGAACAGCCUUGGUUUUUUG [G61C G120C] was -1.04. With GACCAAUCUGCCCUCAGAGCUCGAGAACAUCUUCGGAUGCAGAGGAGGCAGGCUUCGGUGGCGCGAUAGCACCAACGUCCUCAACCUCCAAUGCAUCCCACCACAUGAUGAUGCCUGAAGAGCCUUGGUUUUUUU [G71A G135U], the “polymerase ribozyme fitness (log ratio)” value is -1.5.

Consider GACCAAUCUGCCCUCAGAGCUCGAGAACAUCUUCGGAUGCAGAGGAGGCAGGCUUCGGUGUCGCGAUAGCGCCAACGUCCUCAACCUCCAAUGCAUCCCACCACAUGAUGGUGCCUGAAGAGCCUUGGUUUUUUG [G61U A111G], for which the “polymerase ribozyme fitness (log ratio)” value was determined as 0.628. Consider GACCAAUCUGCCCUCAGAGUUCGAGAACAUCUUCGGAUGCAGAGGAGGCAGGCUUCGGUAGCGCGAUAGCGCCAACGUCCUCAACCUCCAAUGCAUCCCACCACAUCAUGAUGCCUGAACAGCCUUGGUUUUUUG [C20U G60A G107C G120C], for which the “polymerase ribozyme fitness (log ratio)” value is -5.52.

As to GACCAAGCUGCCCUCAGAGCUCGAGAACAUCUUCGGAUGCAGAGGAGGCAGGCUUCGGUGGCGCGAUAGCGCCAACGGCGUCAACCUCCAAUGCAUCCCACCACAUGAUGAUGCCUGAAGAGCCUUGGUUUUUUU [U7G U78G C80G G135U], the “polymerase ribozyme fitness (log ratio)” value was -5.8. Then GACCAAUGUGCCCUCAGAGUUCGAGAACAUCUUCGGAUGCAGAGGAGGCAGUCUUCGGUGGAGCGAUAGCGCCAACGUCCUCAACCUCCAAUGCAUCCCACCACAUGAUGAUGCCUGAAGAGCCUUGGUUUUUUG [C8G C20U G52U C62A], with -2.37; and GACCAAUCUGCCCUCAGAGCUCGAGAACAUCUUCGGAUGCAGAGGAGGCAGGCUUCGGUGGCGAGAUACCGCCAUCGUCCUCAACCACCAAUGCAACCCACCACAUGAUGAUGCCUGAAGAGCCUUGGUUUUUUG [C64A G69C A75U U87A U96A], with -1.55; and GACCGAUCUGCCCUCAGAGCUCGAGAACAUCUUCGGAUGCAGAGGAGGUAGGCUUCGGUGGCGCGAUAGCGCUAACGUCCUCAACCUCCAAUGCAUCCCACCACAUGAUGAUGCCUGAAGAGCCUUGGUUUUUUG [A5G C49U C73U], with -0.864. As for GACCAAUAUGCCCUCAGAGCUCGAGAACAUCUUCGGAUGCAGAGGAGGCAGGCUUCGGUGGCGCGAUAGCGCCAACGUCCUCAACCUACAAUGCAUCCCACCACAUGAUGAUGCCUGAAGAGCCUUGGUUUUUUG [C8A C88A], the “polymerase ribozyme fitness (log ratio)” value is 0.0973. Take GACCAAUCUGCCCUCAGAGCUCGAGAACAUCUUCGGAUGCAGAGGAGGCAGGCUUCGGUGGCGCGAUAGCGACAACGUCCUCAAACUCCAAUGCAUCCCACCACAUGAUGAUGCCUGAAGCGCCUUGGUUUUUUG [C72A C85A A121C]: the “polymerase ribozyme fitness (log ratio)” value worked out at 1.56. Then GACCAAUCUGCCCUCAGAGCUCGAGAACAUCUUAGGAUGUAGAGGAGGCAGGCUUCGGUGGCGCGAUAGCGCCAACGUCCUCAAACUCCAAUGCAUCCCACCACAUGAUGAUGCCUGAAGAGCCUUGGUUUUUUG [C34A C40U C85A], with -5.11; and GACCAAUCUGCCCUCAGAGCUCGAGAACAUCUUCGGAUGCAGAGGAGGCAGGCUUCGGUGGCGCGAUAGUGCCAACGUCCUCAACCUCCAAUGCAUCCCACCACAUGAUGAUGCCUGAAGAACCUUGGUUUUUUG [C70U G122A], with -0.84. The value for GACCAAUCUGGCCUCAGAGCUCGAGAACAUCUUCGGAUGCAGAGGAGGCAGGCUUCGGGGGCGCGAUAGCGCCAACGUCCUCAACCUCCAAAGCAUCCCACCACAUGAUGAUGUCUGAAGCGCCUUGUUUUUUUG [C11G U59G U92A C114U A121C G128U] was -3.21; that for GACCAAUCUGCCCUCAGAGCUCGAGAACAUCUUCGGAUGCAGAGGAGGCAGGCUUCGGUGGCGCGAUAGCGCCAACGUCCUCAUCCUCCAAUGCAUCCCACCACAUGAUGAUGACUGAAGAGCCUUGGUUAUUUG [A84U C114A U131A] was -0.993.

Take GACCAAUCUGCCCUCAGAGCUCGAGAACAUCUUCGGAUGCAGAGGAGGCAGGCUUCGGUGGCGCGAUAGCGCCAACGUCCUCAACCUCCAAUGCAUCCCACCAUAUGAUGAUGCCUUAAGAGCCUUGGUUUAUUG [C104U G117U U132A]: the “polymerase ribozyme fitness (log ratio)” value is -1.97. The value for GACCAAUCUGUCCUCAGAGCUCGAGAACAUCUUCGGAUGCAGAAGAGGCAGGCUUCGGUGGCGCGAUAGCGCCAACGUUCUCAACCUCCAAUGCAUCCCACCACAUGAUGAUGCCUGAUGAGCCUUGGUUUUUUG [C11U G44A C79U A119U] was -1.69; that for GACCAAUCUGCCCUCAGAGCUCGAGAACAUCUUCGGAUGCAGAGGAGGCAGGCUUCGGUGGCGCGAUAGCGCCAACGUCCUCAACCCCCCAUGCAUCCCACCACAUGAUGAUGCAUGAAGAGCCUUGGUUUUUUG [U87C A90C C115A] was -0.371. As for GACCAAUCUGCCCUCAGAGCUCGAGAACAUCUUCGGAUGCAGAGGAGGCAGGCUUCGGUGGCGCGAUAGCGACAACGUCCUCAACCUCCAAUGCAUCCCACCACAUGAUGAUGCCUGAAAAGCCUUGGUUUUUUG [C72A G120A], the “polymerase ribozyme fitness (log ratio)” value turned out to be 1.06. Turning to GACCAAUCGGCCCUCAGAGCUCGAGAACAUCUUCGGAUGCAGAGGAGGCAGGCUUCGGUGGCGCGAUAGUGCCAACGUCCCCAACCUCCAAUGCAUCCCACCACAUGAUUAUGCCUGAAGAGCCUUGGUUUUUUG [U9G C70U U81C G110U], the “polymerase ribozyme fitness (log ratio)” value is -3.84.
